US20240294622A1 (SUZHOU TRANSCENTA THERAPEUTICS, published 2024)

B1: 67G11 (antibody, V domains shown)
VH: QVQLQQSGAELARPGASVKLSCKASGYTFTSYGIGWVKQRTGQGLEWIGEIYPRSGNTYNNEKFKGKATLTADKSSRTVYMELRSLISEDSAVYFCAREGYSNNYYAMDYWGQGTSVTVFS
VL: DVLMTQTPLSLPVSLGDQASISCRSSQSLVHSNGNTYLEWYLQKPGQSPKLLIYKVSNRFSGVPDRLSGSGSGTDFTLKISRVEAEDLGVYYCFQGSHVPFTFGSGTKLEIK
notes: mouse hybridoma antibody; also called hybridoma 67G11
B2: 42B9 (antibody, V domains shown)
VH: QVQLQQSGAELARPGASVKLSCKASGYTFTSYGIGWVKQRTGQGLEWIGEIYPRSGNTYNNEKFKGKATLTADKSSRTVYMELRSLISEDSAVYFCAREGYSNNYYAMDYWGQGTSVTVFS
VL: DVLMTQTPLSLPVSLGDQASISCISSQSLVHSNGNTYLEWYLQKPGLSPKLLIYKVSNRFSGVPDRLSGSGSGTDFTLRISRVEAEDLGVYYCFQGSHVPFTFGSGTKLEIK
notes: mouse hybridoma antibody; also called hybridoma 42B9
B3: chimeric antibody 67G11 (antibody, human IgG1, V domains shown)
VH: QVQLQQSGAELARPGASVKLSCKASGYTFTSYGIGWVKQRTGQGLEWIGEIYPRSGNTYNNEKFKGKATLTADKSSRTVYMELRSLISEDSAVYFCAREGYSNNYYAMDYWGQGTSVTVFS
VL: DVLMTQTPLSLPVSLGDQASISCRSSQSLVHSNGNTYLEWYLQKPGQSPKLLIYKVSNRFSGVPDRLSGSGSGTDFTLKISRVEAEDLGVYYCFQGSHVPFTFGSGTKLEIK
B4: 69H5 (antibody, V domains shown)
VH: EVQLQQSGAELVRPGASVKLSCTASGFNIKDDYMHWVKRRPEQGLEWIGWIDPENGDTEYASKFQGKATITADTSSNTAYLQLSSLTSEDTAVYYCTTWATVPDFDYWGQGTTLTVSS
VL: DIVMTQSPSSLAMSVGQKVTMSCKSSQSLLNRSNQKNYLAWYQQKPGQSPKLLVHFTSTRESGVPDRFIGSGSGTDFTLTISNLQAEDLADYFCQQHYSTPFTFGSGTKLEIK
notes: mouse hybridoma antibody; also called hybridoma 69H5
B5: 56C11-C (chimeric antibody of 56C11) (antibody, human IgG1, V domains shown)
VH: EVQLQQSGPELVKPGASVKISCKASGYTFTDFYMNWVKQSHGKSLEWIGDINPNNGGTSYNQKFKGKATLTVDKSSSTAYMELRSLTSEDSAVYYCARDPIYYDYDEVAYWGQGTLVTVSA
VL: DVVMTQTPLSLPVSLGDQASISCRSSQSLVHSNGNTYLHWYLQKPGQSPKLLIYKVSNRFSGVPDRFSGSGSGTDFTLKISRVEAEDLGVYFCSQSTHVPLTFGAGTKLELK
notes: also called 56C11-chi

Columns and labels:
[1] = biological target: T1, Mouse Gremlin-His (R&D) (mouse, UniProt O70326 25-184); experiment: ELISA, coated mouse gremlin (R&D)
T1 construct: Lys25-Asp184 with 10xHis, R&D 956-GR; also called mouse gremlin (R&D); mGREM1
T1 sequence: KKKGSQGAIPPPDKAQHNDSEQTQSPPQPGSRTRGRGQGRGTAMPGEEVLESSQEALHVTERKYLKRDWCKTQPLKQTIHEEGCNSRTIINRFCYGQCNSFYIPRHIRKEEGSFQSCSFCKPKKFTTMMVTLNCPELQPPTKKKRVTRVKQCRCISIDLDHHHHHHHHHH
Method: (§1) Clear polystyrene plates (BEAVER) were coated with 100 μl/well of a […] hGREM1 (ACRO) and mouse gremlin (R&D) in high pH coating buffer overnight at 4° C. Then the plates were washed once on an automatic plate washer using PBS+0.1% Tween 20 (Sigma). 100 μl of block solution consisting of PBS+1% BSA+1% normal goat serum+0.5% Tween 20 (Sigma) was added to each well and incubated at room temperature for 2 hours. Then 100 μl of antibodies in antibody dilution buffer containing PBS+1% BSA+1% normal goat serum+0.01% Tween 20 starting from 2 μg/ml and then serial dilutions were added to each well of the plate and incubated for 1 hours at room temperature. Afterward the plates were washed three times with 200 μl of PBS+0.1% Tween20 followed by adding 100 μl/well 1:10000 Goat anti mouse IgG-HRP (abcam), and incubate for 1 hour at room temperature. They were then washed 3× with PBS+0.1% Tween20. Finally, 100 µl/well of TMB (Pierce) was added to each well and after several minutes add 50 μl of stop solution to each well. The plates were read on a Multiscan FC microplate reader (Thermo Scientific) at […].

[2] = biological target: T2, HGREM1-His (ACRO) (human, UniProt O60565 25-184); experiment: ELISA on coated Gremlin-his (column Gremlin)
T2 construct: Lys25-Asp184 of NP_037504 with C-terminal polyhistidine tag (ACRO GR1-H52H3); they are put here; also called hGREM1 (ACRO); human gremlin (ACRO)
T2 sequence: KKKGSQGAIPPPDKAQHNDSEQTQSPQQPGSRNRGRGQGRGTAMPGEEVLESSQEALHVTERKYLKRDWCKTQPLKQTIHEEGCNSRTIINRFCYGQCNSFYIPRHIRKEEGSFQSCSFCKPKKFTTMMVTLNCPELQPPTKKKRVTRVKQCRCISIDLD
Method: (§2) Binding affinities to hGREM1 and XM5 were also compared. Briefly, XM5-Fc or Gremlin-his […] was coated. 100 μl of block solution consisting of PBS+1% BSA+1% normal goat serum+0.5% Tween 20 (Sigma) was added to each well and incubated at room temperature for 2 hours. 4-fold serial antibody dilution from 2 μg/ml were added. Afterward the plates were washed three times with 200 ul of PBS+0.1% Tween20 followed by adding 100 μl/well 1:10000 Goat anti mouse IgG-HRP (abeam), and incubate for 1 hour at room temperature. They were then washed 3× with PBS+0.1% Tween20. Finally, 100 μl/well of TMB (InnoReagents) was added to each well and after 2 minutes add 50 ul of stop solution to each well. The plates were read on a Multiscan FC microplate reader (Thermo Scientific) at […]. The EC50 values were show in table below.

[3] = biological target: T2, HGREM1-His (ACRO); experiment: blocking ELISA, Human Gremlin-1 binding to FGFR1
Method: Next, 0.25 μg/ml of gremlin was selected to test the blocking activity. The ability of antibodies to block Gremlin binding to human FGFR1-Fc was examined via ELISA. Plates were coated with recombinant FGFR1-Fc (2 μg/ml) overnight and then serial dilutions of antibodies were incubated with 0.25 μg/ml of human Gremlin-his modified for 1 h at RT before this complex was added to coated plates and allowed to incubate for an additional hour at RT. The plates were then washed and added with anti-his HRP (GenScript). Plates were then developed with a TMB solution and stopped by adding stop solution. The plates were read on a plate reader at 450 nm. […] Humanized anti-GREM1 antibodies provided herein (e.g., Hu14E3, Hu22F1) are expected to show the similar technical effect as their chimeric counterparts in blocking the binding of hGREM1 to FGFR1.

[4] = biological target: T2, HGREM1-His (ACRO); experiment: blocking ELISA, Human Gremlin-1 binding to BMP7; column Percentage
Method: (§3) In addition, the ability of serial dilutions of antibodies provided herein to block Gremlin binding to human BMP2/4/7 was also examined via ELISA. Plates were coated with recombinant human BMP2/4/7 (0.5 μg/ml) overnight and then serial dilutions of antibodies were incubated with 1 μg/ml of human Gremlin-his modified for 1 h at RT before this complex was added to coated plates and allowed to incubate for an additional hour at RT. The plates were then washed and added with anti-his HRP (GenScript). Plates were then developed with a TMB solution and stopped by adding stop solution. The plates were read on a plate reader at 450 nm. […] The chimeric anti-gremlin 1 antibodies (69H5-chi) and chimeric anti-gremlin 1 antibodies (22F1-chi) also can inhibit the binding of gremlin to BMP2 and BMP4 (see, FIG. 3E and FIG. 3F). The chimeric anti-gremlin 1 antibodies (56C11-chi) can inhibit the binding of gremlin to BMP2 (see, FIG. 3E).

[5] = biological target: T2, HGREM1-His (ACRO); experiment: blocking ELISA, Human Gremlin-1 binding to BMP2; column OD450
Method: as §3

[6] = biological target: T2, HGREM1-His (ACRO); experiment: blocking ELISA, Human Gremlin-1 binding to BMP4; column OD450
Method: as §3

[7] = biological target: T2, HGREM1-His (ACRO); experiment: ELISA, coated hGREM1 (ACRO)
Method: as §1

[8] = biological target: T2, HGREM1-His (ACRO); experiment: blocking ELISA, Human Gremlin-1 binding to BMP4; column Percentage
Method: as §3

[9] = biological target: T2, HGREM1-His (ACRO); experiment: competition ELISA, Gremlin-his binding to coated BMP7
[10] = biological target: T2, HGREM1-His (ACRO); experiment: blocking ELISA, Human Gremlin-1 binding to BMP2; column Percentage
Method: as §3

[11] = biological target: T2, HGREM1-His (ACRO); experiment: blocking ELISA, Human Gremlin-1 binding to BMP7; column OD450
Method: as §3

[12] = biological target: T3, XM5-Fc (human (hGREM1 with residues 123-143 …)); experiment: ELISA on coated XM5-Fc (column XM5)
T3 construct: also called gremlin 1-DAN fusion protein
T3 chain: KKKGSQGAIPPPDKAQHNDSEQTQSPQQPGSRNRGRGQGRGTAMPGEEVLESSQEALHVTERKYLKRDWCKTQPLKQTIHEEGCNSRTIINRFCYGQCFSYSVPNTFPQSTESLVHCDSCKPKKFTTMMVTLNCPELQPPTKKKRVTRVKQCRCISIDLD
Method: as §2

[13] = biological target: T4, DAN-his (Sinobiological) (human, UniProt P41271 17-181, limits assumed); experiment: ELISA on coated DAN-his; unit from the axis Ab(nM); panel called FIG. 19C in the text
T4 construct: also called DAN (Sinobiological); human DAN-his
T4 sequence (looked up): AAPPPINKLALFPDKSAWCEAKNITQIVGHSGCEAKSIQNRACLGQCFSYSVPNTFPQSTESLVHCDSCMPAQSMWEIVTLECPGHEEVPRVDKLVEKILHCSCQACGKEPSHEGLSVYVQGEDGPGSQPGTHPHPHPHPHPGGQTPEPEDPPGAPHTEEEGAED
Method: (§4) Clear polystyrene plates (BEAVER) were coated with 100 μl/well of a 0.5 μg/ml human gremlin (ACRO) and DAN (Sinobiological) in high pH coating buffer overnight at 4° C. Then the plates were washed once on an automatic plate washer using PBS+0.1% Tween 20 (Sigma). 100 μl of block solution consisting of PBS+1% BSA+1% normal goat serum+0.5% Tween 20 (Sigma) was added to each well and incubated at room temperature for 2 hours. Then 100 ul of antibodies (hybridoma or chimeric antibody 36F5, chimeric antibody 67G11, chimeric antibody 42B9) in antibody dilution buffer containing PBS+1% BSA+1% normal goat serum+0.01% Tween 20 starting from 2 μg/ml (13.33 nM) and then 4 fold serial dilution were added to each well of the plate and incubated for 1 hours at room temperature. Afterward the plates were washed three times with 200 ul of PBS+0.1% Tween20 followed by adding 100 μl/well 1:10000 Goat anti mouse IgG-HRP or mouse anti-human IgG-HRP (abcam), and incubate for 1 hour at room temperature. They were then washed 3× with PBS+0.1% Tween20. Finally, 100 μl/well of TMB (InnoReagents) was added to each well and after 2 minutes add 50 ul of stop solution to each well. The plates were read on a Multiscan FC microplate reader (Thermo Scientific) at 450 nm.

[14] = biological target: T2, HGREM1-His (ACRO); experiment: ELISA on coated human Gremlin-his; unit from the axis Ab(nM); panel called FIG. 19C in the text
Method: as §4

[15] = biological target: T1, Mouse Gremlin-His (R&D); experiment: ELISA on coated Mouse Gremlin-his, anti-mouse IgG-HRP
Method: as §1

[16] = biological target: T5, hGREM1 (source and construct not stated) (human, UniProt O60565 25-184); experiment: ELISA on hGREM1
T5 construct: also called Gremlin; gremlin
T5 sequence: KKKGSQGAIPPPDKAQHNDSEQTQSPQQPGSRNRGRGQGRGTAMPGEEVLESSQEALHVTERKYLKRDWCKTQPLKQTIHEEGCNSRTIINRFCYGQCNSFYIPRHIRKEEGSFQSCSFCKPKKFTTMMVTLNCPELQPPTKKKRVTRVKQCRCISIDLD

Binder	EC50 [1] [µg/mL]	EC50 [2] [µg/mL]	IC50 [3] [µg/mL]	IC50 [4] [µg/mL]	IC50 [5] [µg/mL]	IC50 [6] [µg/mL]	EC50 [7] [µg/mL]	IC50 [8] [µg/mL]	maximal blocking percentage [9] [%]	IC50 [10] [µg/mL]	IC50 [11] [µg/mL]	EC50 [12] [µg/mL]	EC50 [13] [nM]	EC50 [14] [nM]	binding result [15]	EC50 [16] [µg/mL]
B1	0.00771	0.0126	2.41	0.848	0.547	0.367	0.00784	0.367	≥ 50	0.548	0.848	0.00665				
B2	0.00851	0.0134	2.79	0.928	0.752	0.397	0.00806	0.396	≥ 50	0.752	0.916	0.00712				
B3													0.0178	0.019		
B4							0.106								no binding	
B5																0.00489
